# Measurements published in article PMC2715281 (Nature structural & molecular biology, 2009).
# Like-named read-outs stand apart in the source and are kept apart here.
# T1: MBP-RAG1 core WT;GST-RAG2 core (mouse (murine);mouse (murine), UniProt P15919;P21784 384-1008;1-383, |)
# T1 sequence 1: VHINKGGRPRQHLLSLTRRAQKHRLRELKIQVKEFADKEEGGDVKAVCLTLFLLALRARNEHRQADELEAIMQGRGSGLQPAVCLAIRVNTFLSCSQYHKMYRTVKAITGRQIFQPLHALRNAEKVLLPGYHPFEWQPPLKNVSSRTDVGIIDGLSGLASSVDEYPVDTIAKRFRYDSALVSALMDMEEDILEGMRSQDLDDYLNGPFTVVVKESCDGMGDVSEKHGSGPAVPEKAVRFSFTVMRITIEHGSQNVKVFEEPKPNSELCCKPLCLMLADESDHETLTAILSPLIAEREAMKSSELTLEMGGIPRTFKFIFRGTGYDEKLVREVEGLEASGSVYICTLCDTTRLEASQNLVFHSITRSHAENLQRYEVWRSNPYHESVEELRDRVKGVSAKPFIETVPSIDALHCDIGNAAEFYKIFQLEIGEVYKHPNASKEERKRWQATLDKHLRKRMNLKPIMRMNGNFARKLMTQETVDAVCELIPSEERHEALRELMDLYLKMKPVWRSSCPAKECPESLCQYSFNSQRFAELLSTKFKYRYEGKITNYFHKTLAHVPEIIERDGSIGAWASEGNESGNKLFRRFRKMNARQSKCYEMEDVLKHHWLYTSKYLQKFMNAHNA
# T1 sequence 2: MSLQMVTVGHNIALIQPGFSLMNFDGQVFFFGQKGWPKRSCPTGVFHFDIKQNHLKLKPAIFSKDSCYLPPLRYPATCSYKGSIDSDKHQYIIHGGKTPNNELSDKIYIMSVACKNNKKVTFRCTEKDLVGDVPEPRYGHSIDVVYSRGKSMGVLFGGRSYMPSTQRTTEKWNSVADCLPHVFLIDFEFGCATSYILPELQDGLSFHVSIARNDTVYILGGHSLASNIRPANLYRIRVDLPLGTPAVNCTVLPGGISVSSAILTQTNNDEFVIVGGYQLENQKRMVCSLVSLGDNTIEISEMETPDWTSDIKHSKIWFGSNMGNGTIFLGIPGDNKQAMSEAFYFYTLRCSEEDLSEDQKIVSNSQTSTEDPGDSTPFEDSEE
# T2: RAG1 NBD (mouse (murine), UniProt P15919 389-464)
# T2 sequence: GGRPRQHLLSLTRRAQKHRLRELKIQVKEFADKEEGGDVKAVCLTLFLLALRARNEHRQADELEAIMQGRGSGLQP
# B1: Consensus 12RSS (dsDNA)
# DNA 1: GATCTGGCCTGTCTTACACAGTGATACAGACCTTAACAAAAACCTGCACTCGAGCGGAG
# DNA 2: CTCCGCTCGAGTGCAGGTTTTTGTTAAGGTCTGTATCACTGTGTAAGACAGGCCAGATC
# B2: 56DNA crystal 14-mer (symmetrized) (dsDNA)
# DNA 1: AGTTTTCAGAAACC
# DNA 2: AGGTTTCTGAAAAC
# B3: His6-tagged RAG1 nonamer-binding domain (murine RAG1 residues 389-464) (domain or fragment, UniProt P15919 389-464, looked up)
# chain: T2 sequence
# B4: Native crystal 14-mer (nonamer plus 4 bp of 12RSS spacer) (dsDNA)
# DNA 1: ACTTAACAAAAACC
# DNA 2: TGGTTTTTGTTAAG
# Tests used:
# [1] = biological target: T1, MBP-RAG1 core WT;GST-RAG2 core; assay: EMSA
# [2] = biological target: MBP-RAG1 core WT;GST-RAG2 core;His-HMGB1 (mouse (murine);mouse (murine);human, UniProt P15919;P21784;P09429 384-1008;1-383;1-215, ||); assay: EMSA
# RAG1 NBD [3] = biological target: T2, RAG1 NBD; assay: crystal structure
# SEC + SEC-MALS = biological target: the molecule itself; assay: SEC + SEC-MALS
# RAG1 NBD [4] = biological target: T2, RAG1 NBD; assay: crystal structure; remark: listed apart in the source
# Sequence of MBP-RAG1 core WT;GST-RAG2 core;His-HMGB1 (P09429 whole entry, one chain of several): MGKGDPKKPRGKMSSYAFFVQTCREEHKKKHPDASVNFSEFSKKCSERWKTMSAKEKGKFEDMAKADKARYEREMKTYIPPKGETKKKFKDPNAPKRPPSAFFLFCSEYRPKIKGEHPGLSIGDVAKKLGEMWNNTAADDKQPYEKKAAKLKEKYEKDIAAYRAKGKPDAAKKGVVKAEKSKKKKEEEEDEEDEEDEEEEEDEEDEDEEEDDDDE
binder,measurement,setting,value
B1,binding signal,[1],1 relative to WT
same,binding result,[2],binds
B2,binding result,RAG1 NBD [3],binds
B3,stoichiometry N,SEC + SEC-MALS,2
B4,binding result,RAG1 NBD [4],binds
